Patent publication US20120052070A1 (Novartis, published 2012)

T1: recombinant human DKK1 (human, UniProt O94907 32-266)
T1 sequence: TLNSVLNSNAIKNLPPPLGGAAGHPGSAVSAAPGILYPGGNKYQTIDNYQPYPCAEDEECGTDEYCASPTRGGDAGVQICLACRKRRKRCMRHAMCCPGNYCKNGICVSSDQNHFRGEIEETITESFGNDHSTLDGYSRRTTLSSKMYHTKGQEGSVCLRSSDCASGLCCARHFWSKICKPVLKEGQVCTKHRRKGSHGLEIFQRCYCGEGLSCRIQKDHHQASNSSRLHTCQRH

B1: anti-DKK1 FAb MOR04910 (Fab, V domains shown)
VH: QVQLVESGGGLVQPGGSLRLSCAASGFTFSSYWMSWVRQAPGKGLEWVSGISYSGSNTHYADSVKGRFTISRDNSKNTLYLQMNSLRAEDTAVYYCARMGIDLDYWGQGTLVTVSS
VL: DIALTQPASVSGSPGQSITISCTGTSSDVGGFNYVSWYQQHPGKAPKLMIHDGSNRPSGVSNRFSGSKSGNTASLTISGLQAEDEADYYCQSWDVSPITAVFGGGTKLTVLG
B2: anti-DKK1/4 antibody (antibody, V domains shown)
VH: B1 VH
VL: B1 VL

Molecular target: T1, recombinant human DKK1
Experiment: cell-based or functional assay

Row | Binder | EC50, reactivation of DKK1 inhibited wnt signaling | apparent EC50, TCF/LEF luciferase reporter (SuperTopflash, Kremen) with 10 ng/ml rhDKK1 and Wnt3a conditioned medium
1 | B1 | < 1 nM | 
2 | B2 |  | 0.16 nM
